{"source": "patent US20230121433A1", "experiment_in_all_cases": "cell-based or functional assay", "key": {"CSR 01 CD2.DH.z": {"target": "CSR 01 CD2.DH.z", "sequence (chain, as listed by the source)": "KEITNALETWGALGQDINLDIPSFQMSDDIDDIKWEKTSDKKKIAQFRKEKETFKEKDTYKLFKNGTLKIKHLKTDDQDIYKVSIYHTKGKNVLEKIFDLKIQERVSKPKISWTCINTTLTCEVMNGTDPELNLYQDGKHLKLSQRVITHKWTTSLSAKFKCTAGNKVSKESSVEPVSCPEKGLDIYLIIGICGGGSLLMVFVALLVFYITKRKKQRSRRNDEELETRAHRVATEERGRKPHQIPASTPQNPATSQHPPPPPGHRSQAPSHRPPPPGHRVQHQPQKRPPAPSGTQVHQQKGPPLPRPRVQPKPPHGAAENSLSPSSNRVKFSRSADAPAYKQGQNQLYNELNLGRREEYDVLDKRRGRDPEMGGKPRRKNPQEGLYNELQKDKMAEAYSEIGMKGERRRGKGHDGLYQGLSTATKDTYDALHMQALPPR"}, "CSR 82DH.2TF2z WT": {"target": "CSR 82DH.2TF2z WT", "sequence (chain, as listed by the source)": "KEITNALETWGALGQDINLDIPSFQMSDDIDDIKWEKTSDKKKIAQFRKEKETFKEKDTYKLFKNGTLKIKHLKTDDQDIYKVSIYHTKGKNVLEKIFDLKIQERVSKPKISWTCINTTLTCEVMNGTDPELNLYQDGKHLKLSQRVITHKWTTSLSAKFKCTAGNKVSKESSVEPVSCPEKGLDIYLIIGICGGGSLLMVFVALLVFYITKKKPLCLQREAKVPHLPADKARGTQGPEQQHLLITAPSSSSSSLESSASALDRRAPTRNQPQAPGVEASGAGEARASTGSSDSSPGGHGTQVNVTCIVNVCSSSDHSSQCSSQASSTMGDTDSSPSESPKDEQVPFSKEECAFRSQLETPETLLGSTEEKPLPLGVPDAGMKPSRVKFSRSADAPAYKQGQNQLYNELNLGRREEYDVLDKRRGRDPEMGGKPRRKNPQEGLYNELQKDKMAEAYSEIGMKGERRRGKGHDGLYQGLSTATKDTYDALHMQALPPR"}, "CSR 2DH.TF2z": {"target": "CSR 2DH.TF2z", "sequence (chain, as listed by the source)": "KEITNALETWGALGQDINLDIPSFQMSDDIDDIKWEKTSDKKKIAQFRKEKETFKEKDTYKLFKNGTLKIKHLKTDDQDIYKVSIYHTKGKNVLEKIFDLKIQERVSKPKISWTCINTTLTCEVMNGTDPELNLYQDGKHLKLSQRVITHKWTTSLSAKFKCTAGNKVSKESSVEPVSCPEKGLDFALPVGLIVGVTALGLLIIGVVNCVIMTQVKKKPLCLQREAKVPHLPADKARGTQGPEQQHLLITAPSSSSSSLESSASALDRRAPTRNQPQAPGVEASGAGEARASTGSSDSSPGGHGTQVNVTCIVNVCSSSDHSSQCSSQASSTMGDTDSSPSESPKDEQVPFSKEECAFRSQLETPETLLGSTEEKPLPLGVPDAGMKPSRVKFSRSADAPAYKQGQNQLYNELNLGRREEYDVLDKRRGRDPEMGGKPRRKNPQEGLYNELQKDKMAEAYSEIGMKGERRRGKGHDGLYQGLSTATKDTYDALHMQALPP"}, "CSR 2DH.2TF2z WT": {"target": "CSR 2DH.2TF2z WT", "sequence (chain, as listed by the source)": "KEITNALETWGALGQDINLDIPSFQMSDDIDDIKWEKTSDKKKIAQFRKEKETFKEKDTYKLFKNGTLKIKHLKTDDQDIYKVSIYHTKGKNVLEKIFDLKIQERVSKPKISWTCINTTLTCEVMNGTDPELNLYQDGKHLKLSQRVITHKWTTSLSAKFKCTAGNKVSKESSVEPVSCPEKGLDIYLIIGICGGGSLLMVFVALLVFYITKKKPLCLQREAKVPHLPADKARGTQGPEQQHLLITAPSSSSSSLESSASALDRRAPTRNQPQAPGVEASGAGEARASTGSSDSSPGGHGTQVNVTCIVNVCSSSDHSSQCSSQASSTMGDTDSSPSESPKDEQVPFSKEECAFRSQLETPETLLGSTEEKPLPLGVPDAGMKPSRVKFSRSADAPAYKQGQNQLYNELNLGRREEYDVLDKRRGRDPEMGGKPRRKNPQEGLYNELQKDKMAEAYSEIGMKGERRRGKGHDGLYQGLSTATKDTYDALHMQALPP"}, "CSR 82DH.TF2z": {"target": "CSR 82DH.TF2z", "sequence (chain, as listed by the source)": "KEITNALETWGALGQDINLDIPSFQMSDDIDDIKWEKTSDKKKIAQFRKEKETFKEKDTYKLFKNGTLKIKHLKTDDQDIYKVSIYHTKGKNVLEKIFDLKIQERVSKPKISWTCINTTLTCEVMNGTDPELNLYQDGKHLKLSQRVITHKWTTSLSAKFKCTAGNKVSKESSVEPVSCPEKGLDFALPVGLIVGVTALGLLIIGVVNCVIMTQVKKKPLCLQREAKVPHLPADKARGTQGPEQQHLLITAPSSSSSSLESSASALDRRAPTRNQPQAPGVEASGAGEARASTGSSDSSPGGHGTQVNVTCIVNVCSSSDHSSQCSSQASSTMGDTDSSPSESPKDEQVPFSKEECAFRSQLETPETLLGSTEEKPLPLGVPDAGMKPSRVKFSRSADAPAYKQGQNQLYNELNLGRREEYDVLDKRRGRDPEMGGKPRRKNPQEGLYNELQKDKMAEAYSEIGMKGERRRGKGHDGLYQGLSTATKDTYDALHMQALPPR"}}}
{"substance": "Immunocult Human CD2 T cell activator (StemCell Technologies)", "values": [{"measurement": "pSTAT5 Expression post activation in Treg cells (% of live cells), +16 hours, Donor 4", "setting": "CSR 01 CD2.DH.z", "value": 7.1, "unit": "%"}, {"measurement": "pSTAT5 Expression post activation in Treg cells (% of live cells), +16 hours, Donor 5", "setting": "CSR 01 CD2.DH.z", "value": 10.3, "unit": "%"}, {"measurement": "pSTAT5 Expression post activation in Treg cells (% of live cells), +24 hours, Donor 4", "setting": "CSR 01 CD2.DH.z", "value": 10.5, "unit": "%"}, {"measurement": "pSTAT5 Expression post activation in Treg cells (% of live cells), +24 hours, Donor 5", "setting": "CSR 01 CD2.DH.z", "value": 11.1, "unit": "%"}, {"measurement": "pSTAT5 Expression post activation in pan T cells (% of live cells), +4 hours, Donor 1 (% of live cells)", "setting": "CSR 01 CD2.DH.z", "value": 3.52}, {"measurement": "pSTAT5 Expression post activation in pan T cells (% of live cells), +4 hours, Donor 2 (% of live cells)", "setting": "CSR 01 CD2.DH.z", "value": 41.1}, {"measurement": "pSTAT5 Expression post activation in pan T cells (% of live cells), +24 hours, Donor 1 (% of live cells)", "setting": "CSR 01 CD2.DH.z", "value": 17.7}, {"measurement": "pSTAT5 Expression post activation in pan T cells (% of live cells), +24 hours, Donor 2", "setting": "CSR 01 CD2.DH.z", "value": 47.9, "unit": "%"}, {"measurement": "pSTAT5 Expression post activation in Treg cells (% of live cells), +16 hours, Donor 4", "setting": "CSR 82DH.2TF2z WT", "value": 13.3, "unit": "%"}, {"measurement": "pSTAT5 Expression post activation in Treg cells (% of live cells), +16 hours, Donor 5 (% of live cells)", "setting": "CSR 82DH.2TF2z WT", "value": 7.45}, {"measurement": "pSTAT5 Expression post activation in Treg cells (% of live cells), +24 hours, Donor 4", "setting": "CSR 82DH.2TF2z WT", "value": 13.6, "unit": "%"}, {"measurement": "pSTAT5 Expression post activation in Treg cells (% of live cells), +24 hours, Donor 5", "setting": "CSR 82DH.2TF2z WT", "value": 9.16, "unit": "%"}, {"measurement": "pSTAT5 Expression post activation in pan T cells (% of live cells), +4 hours, Donor 1", "setting": "CSR 82DH.2TF2z WT", "value": 3.24, "unit": "%"}, {"measurement": "pSTAT5 Expression post activation in pan T cells (% of live cells), +4 hours, Donor 2 (% of live cells)", "setting": "CSR 82DH.2TF2z WT", "value": 11}, {"measurement": "pSTAT5 Expression post activation in pan T cells (% of live cells), +24 hours, Donor 1 (% of live cells)", "setting": "CSR 82DH.2TF2z WT", "value": 5.5}, {"measurement": "pSTAT5 Expression post activation in pan T cells (% of live cells), +24 hours, Donor 2", "setting": "CSR 82DH.2TF2z WT", "value": 6.36, "unit": "%"}, {"measurement": "pSTAT5 Expression post activation in Treg cells (% of live cells), +16 hours, Donor 4 (% of live cells)", "setting": "CSR 2DH.TF2z", "value": 9.24}, {"measurement": "pSTAT5 Expression post activation in Treg cells (% of live cells), +24 hours, Donor 4 (% of live cells)", "setting": "CSR 2DH.TF2z", "value": 8.64}, {"measurement": "pSTAT5 Expression post activation in pan T cells (% of live cells), +4 hours, Donor 1 (% of live cells)", "setting": "CSR 2DH.TF2z", "value": 5.43}, {"measurement": "pSTAT5 Expression post activation in pan T cells (% of live cells), +4 hours, Donor 2", "setting": "CSR 2DH.TF2z", "value": 4.2, "unit": "%"}, {"measurement": "pSTAT5 Expression post activation in pan T cells (% of live cells), +24 hours, Donor 1", "setting": "CSR 2DH.TF2z", "value": 5.67, "unit": "%"}, {"measurement": "pSTAT5 Expression post activation in pan T cells (% of live cells), +24 hours, Donor 2", "setting": "CSR 2DH.TF2z", "value": 5.17, "unit": "%"}, {"measurement": "pSTAT5 Expression post activation in Treg cells (% of live cells), +16 hours, Donor 4", "setting": "CSR 2DH.2TF2z WT", "value": 13.9, "unit": "%"}, {"measurement": "pSTAT5 Expression post activation in Treg cells (% of live cells), +16 hours, Donor 5 (% of live cells)", "setting": "CSR 2DH.2TF2z WT", "value": 10.3}, {"measurement": "pSTAT5 Expression post activation in Treg cells (% of live cells), +24 hours, Donor 4 (% of live cells)", "setting": "CSR 2DH.2TF2z WT", "value": 15.8}, {"measurement": "pSTAT5 Expression post activation in Treg cells (% of live cells), +24 hours, Donor 5 (% of live cells)", "setting": "CSR 2DH.2TF2z WT", "value": 13.5}, {"measurement": "pSTAT5 Expression post activation in pan T cells (% of live cells), +4 hours, Donor 1", "setting": "CSR 2DH.2TF2z WT", "value": 4.73, "unit": "%"}, {"measurement": "pSTAT5 Expression post activation in pan T cells (% of live cells), +4 hours, Donor 2 (% of live cells)", "setting": "CSR 2DH.2TF2z WT", "value": 2.78}, {"measurement": "pSTAT5 Expression post activation in pan T cells (% of live cells), +24 hours, Donor 1 (% of live cells)", "setting": "CSR 2DH.2TF2z WT", "value": 8.34}, {"measurement": "pSTAT5 Expression post activation in pan T cells (% of live cells), +24 hours, Donor 2 (% of live cells)", "setting": "CSR 2DH.2TF2z WT", "value": 15.8}, {"measurement": "pSTAT5 Expression post activation in Treg cells (% of live cells), +16 hours, Donor 4 (% of live cells)", "setting": "CSR 82DH.TF2z", "value": 10.5}, {"measurement": "pSTAT5 Expression post activation in Treg cells (% of live cells), +24 hours, Donor 4 (% of live cells)", "setting": "CSR 82DH.TF2z", "value": 11.6}, {"measurement": "pSTAT5 Expression post activation in pan T cells (% of live cells), +4 hours, Donor 1 (% of live cells)", "setting": "CSR 82DH.TF2z", "value": 5.49}, {"measurement": "pSTAT5 Expression post activation in pan T cells (% of live cells), +4 hours, Donor 2 (% of live cells)", "setting": "CSR 82DH.TF2z", "value": 5.09}, {"measurement": "pSTAT5 Expression post activation in pan T cells (% of live cells), +24 hours, Donor 1 (% of live cells)", "setting": "CSR 82DH.TF2z", "value": 6.16}, {"measurement": "pSTAT5 Expression post activation in pan T cells (% of live cells), +24 hours, Donor 2 (% of live cells)", "setting": "CSR 82DH.TF2z", "value": 10.1}]}
